{
  "source": "patent US20160297863A1",
  "about": "(WAKE FOREST UNIVERSITY HEALTH SCIENCES, published 2016)",
  "binders": {"B1": {"name": "eA5-PE-C (eA5-Fc chemically conjugated to PE38QQR, glycosylated form) (other)", "chain": "QDPGSKAVADRYAVYWNSSNPRFQRGDYHIDVCINDYLDVFCPHYEDSVPEDKTERYVLYMVNFDGYSACDHTSKGFKRWECNRPHSPNGPLKFSEKFQLFTPFSLGFEFRPGREYFYISSAIPDNGRRSCLKLKVFVRPTNSCMKTIGVHDRVFDVNDKVENSLEPADDT"}},
  "biological_target": "EphA2 receptor on GBM cells (human, UniProt P29317 24-976)",
  "sequence (P29317 24-976)": "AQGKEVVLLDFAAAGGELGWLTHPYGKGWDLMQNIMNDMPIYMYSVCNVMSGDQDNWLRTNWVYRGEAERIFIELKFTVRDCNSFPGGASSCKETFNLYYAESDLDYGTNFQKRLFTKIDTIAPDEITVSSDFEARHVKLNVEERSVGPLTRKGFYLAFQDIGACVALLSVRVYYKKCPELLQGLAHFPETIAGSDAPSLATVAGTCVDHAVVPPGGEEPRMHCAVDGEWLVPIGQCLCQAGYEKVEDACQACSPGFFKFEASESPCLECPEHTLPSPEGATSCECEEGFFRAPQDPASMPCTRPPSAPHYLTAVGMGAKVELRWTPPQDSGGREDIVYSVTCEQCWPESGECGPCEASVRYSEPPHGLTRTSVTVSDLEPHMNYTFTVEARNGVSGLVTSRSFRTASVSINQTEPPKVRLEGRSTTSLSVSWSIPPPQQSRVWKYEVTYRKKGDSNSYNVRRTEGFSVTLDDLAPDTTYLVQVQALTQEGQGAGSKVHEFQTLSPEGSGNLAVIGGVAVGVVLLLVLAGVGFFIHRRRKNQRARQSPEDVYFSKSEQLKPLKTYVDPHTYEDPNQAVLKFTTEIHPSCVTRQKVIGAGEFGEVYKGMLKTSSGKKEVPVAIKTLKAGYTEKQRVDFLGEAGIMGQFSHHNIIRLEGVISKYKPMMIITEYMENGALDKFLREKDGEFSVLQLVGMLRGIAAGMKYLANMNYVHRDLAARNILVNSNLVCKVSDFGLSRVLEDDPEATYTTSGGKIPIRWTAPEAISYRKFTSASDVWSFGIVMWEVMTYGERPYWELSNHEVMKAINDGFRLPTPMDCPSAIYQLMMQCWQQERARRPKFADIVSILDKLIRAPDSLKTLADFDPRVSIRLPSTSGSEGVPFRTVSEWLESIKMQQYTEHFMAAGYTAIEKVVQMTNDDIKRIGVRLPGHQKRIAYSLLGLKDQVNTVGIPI",
  "test": "cell-based or functional assay",
  "data": [
    {"binder": "B1", "values": [
      {"measurement": "IC50, GBM tumor cell killing (cell viability assay)", "result": "~10", "unit": "pM"}
    ]}
  ]
}
